Assay [1] addresses Mouse laminin isolated from Engelbreth-Holm-Swarm mouse sarcoma (mouse, UniProt P19137;P02469;P02468). The assay is described as follows: ELISA. In general terms: ELISA stands for enzyme-linked immunosorbent assay.
For a further assay, the target named is Collagen type I (UniProt P02453;P02465). The assay is described as follows: ELISA.
Chain of Collagen type I (P02453 162-1217, chain 1 of 2): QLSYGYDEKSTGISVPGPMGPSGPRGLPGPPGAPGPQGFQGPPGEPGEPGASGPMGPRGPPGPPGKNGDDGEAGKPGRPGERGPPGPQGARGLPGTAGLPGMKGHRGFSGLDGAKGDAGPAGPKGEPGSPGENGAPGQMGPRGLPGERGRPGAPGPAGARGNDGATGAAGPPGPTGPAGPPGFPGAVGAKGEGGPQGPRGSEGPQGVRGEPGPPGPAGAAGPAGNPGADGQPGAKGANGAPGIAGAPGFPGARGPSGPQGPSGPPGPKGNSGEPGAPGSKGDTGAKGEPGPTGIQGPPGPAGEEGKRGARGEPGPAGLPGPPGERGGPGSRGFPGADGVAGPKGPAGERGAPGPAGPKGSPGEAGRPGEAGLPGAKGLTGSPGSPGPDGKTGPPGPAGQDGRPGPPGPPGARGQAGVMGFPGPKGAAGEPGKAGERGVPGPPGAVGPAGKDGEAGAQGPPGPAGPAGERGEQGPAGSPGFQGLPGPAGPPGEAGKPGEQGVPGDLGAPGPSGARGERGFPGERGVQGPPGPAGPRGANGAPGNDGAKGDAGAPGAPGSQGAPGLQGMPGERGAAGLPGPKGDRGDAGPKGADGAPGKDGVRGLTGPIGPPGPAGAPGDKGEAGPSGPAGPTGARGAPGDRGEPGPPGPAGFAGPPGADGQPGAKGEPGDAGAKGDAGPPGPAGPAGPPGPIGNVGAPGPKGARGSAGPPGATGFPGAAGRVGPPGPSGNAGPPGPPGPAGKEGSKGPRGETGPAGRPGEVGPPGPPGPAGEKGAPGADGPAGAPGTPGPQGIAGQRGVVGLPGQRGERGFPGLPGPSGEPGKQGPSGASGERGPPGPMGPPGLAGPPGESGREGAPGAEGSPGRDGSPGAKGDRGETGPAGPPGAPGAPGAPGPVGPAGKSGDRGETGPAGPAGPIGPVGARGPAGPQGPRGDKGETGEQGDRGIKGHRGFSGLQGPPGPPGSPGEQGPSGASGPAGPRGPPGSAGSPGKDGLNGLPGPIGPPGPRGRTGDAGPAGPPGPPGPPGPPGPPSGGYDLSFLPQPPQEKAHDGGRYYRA
Chain of Collagen type I (P02465 80-1117, chain 2 of 2): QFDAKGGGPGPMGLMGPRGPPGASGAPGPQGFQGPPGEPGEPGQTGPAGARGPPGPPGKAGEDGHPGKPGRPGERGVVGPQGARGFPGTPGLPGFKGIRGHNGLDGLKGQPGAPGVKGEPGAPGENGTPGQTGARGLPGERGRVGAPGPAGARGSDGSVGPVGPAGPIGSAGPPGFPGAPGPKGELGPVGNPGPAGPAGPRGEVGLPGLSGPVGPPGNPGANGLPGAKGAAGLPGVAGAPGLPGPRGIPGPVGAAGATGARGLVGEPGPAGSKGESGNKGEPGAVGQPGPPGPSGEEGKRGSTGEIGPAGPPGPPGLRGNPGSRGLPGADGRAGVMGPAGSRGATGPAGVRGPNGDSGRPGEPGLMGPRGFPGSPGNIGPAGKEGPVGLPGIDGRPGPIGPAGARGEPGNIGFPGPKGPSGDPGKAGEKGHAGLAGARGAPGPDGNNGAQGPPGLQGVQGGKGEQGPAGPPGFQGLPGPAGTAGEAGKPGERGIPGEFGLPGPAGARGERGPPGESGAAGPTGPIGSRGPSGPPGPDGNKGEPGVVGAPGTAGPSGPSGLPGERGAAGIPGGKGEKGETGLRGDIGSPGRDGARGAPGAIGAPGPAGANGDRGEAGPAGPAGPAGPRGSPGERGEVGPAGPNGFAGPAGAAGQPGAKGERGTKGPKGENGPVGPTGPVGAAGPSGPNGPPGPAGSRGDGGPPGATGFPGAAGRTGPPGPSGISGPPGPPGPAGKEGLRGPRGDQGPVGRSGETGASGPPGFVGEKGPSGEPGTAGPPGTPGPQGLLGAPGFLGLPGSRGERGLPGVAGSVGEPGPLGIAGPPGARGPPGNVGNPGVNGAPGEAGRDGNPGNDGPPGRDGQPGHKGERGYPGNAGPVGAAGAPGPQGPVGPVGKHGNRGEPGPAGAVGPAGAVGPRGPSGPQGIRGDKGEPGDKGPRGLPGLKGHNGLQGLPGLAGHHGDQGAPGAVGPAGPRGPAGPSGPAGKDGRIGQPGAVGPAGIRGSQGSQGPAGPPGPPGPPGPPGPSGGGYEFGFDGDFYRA

B1: Recombinant bovine opticin (natural protein)
chain: ASLSEEREGDPYAILHLGDYVLSLDNYDEVIDPSNYDELIDYGDQLPQVKGTSLASLTRTRFTQSTEAARTLPSNPTTARPPTLGLLAAPANHGLPTCLICVCLGSSVYCDDADLENIPPLPQTTAYLYARFNRISHIRAGDFKGLTKLKRIDLSGNSISSIDDKALRLLPALRDLILPENKLVALPTLPTSIEVLDVRMNRLQSSGIQPEAFRALEKLQFLYLADNLLDAIPPSLPLSLRSLHLQNNMIETMQRDAFCDAEEHRHTRRPLEDIRLDGNPINLSLFPSAYFCLPRLPTGRFV
B1: the Kd in assay [1] worked out at 40 nM; in the assay with Collagen type I, 60 nM.

The Kd is the equilibrium constant for the complex coming apart. The low end stands for tighter binding, the high end for weaker binding.

Source of the values: article PMC3431625 (The Journal of Biological Chemistry, 2012).
